# Measured values from US20180362616A1, “VARIANTS OF AMYLOID beta-PROTEIN PRECURSOR INHIBITOR DOMAIN” (THE NATIONAL INSTITUTE FOR BIOTECHNOLOGY IN THE NEGEV LTD., priority 2015, published 2018).
# pKd, pKi: −log10 of the molar value. “Also recorded” adds a separate entry of the source. Where two headings read alike, the source gives them in different places.
# Legend:
# [1] = target: T1, mesotrypsin (Homo sapiens, UniProt P35030); settings: literature (Knecht et al. 2007; Radisky et al. 2003); cited from earlier work
# T1 sequence (P35030 81-304 limits assumed): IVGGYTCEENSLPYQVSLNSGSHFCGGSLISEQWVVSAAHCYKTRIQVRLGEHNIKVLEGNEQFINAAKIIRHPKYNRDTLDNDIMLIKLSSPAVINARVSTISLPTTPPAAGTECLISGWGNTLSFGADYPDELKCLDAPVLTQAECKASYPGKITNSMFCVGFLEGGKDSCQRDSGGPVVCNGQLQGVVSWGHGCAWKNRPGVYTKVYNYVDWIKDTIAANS
# [2] = system: HCT-116 cells; assay: XTT proliferation assay; type: cell-based; settings: 100 nM, 1 μM, 10 μM, 48 hours
# Protocol: (§1) The effect of an APPI variant (SEQ ID NO: 13) on proliferation of gastric cancer cells was evaluated by XTT assay. AGS, HCT-116 and SW-480 cells were plated into 96-well plates in 9600 cells/well in duplicate, and allowed to adhere for 4 hours. Each well was supplemented with 100 nM, 1 μM, or 10 μM […] (SEQ ID NO: 13) or a vehicle (50 mM Tris-HCl, 100 mM NaCl, Ph 7.3), and cells were incubated for 48 hours. Proliferation was measured by XTT following the manufacturer instructions (Biological Industries, Ill.).
# [3] = system: SW-480 cells; assay: XTT proliferation assay; type: cell-based; settings: 100 nM, 1 μM, 10 μM, 48 hours
# Protocol: as §1
# [4] = system: AGS cells; assay: XTT proliferation assay; type: cell-based; settings: 100 nM, 1 μM, 10 μM, 48 hours
# Protocol: as §1
# [5] = target: T2, hK6 (Homo sapiens, UniProt Q92876); assay: Surface plasmon resonance, APPI on nickel chip, hK6 analyte; type: binding; settings: SPR
# Protocol: APPIs were immobilized to a SPR nickel chip via the proteins His tag, and hK6 protein served as the analyte. The experiment was conducted at 25° C. APPI concentrations were 0.6125 nM, 1.25 nM, 2.5 nM, 5 nM, and 10 nM.
# To this end, APPIs were mounted on a surface Plasmon resonance (SPR) nickel chip by their His tag, and hK6 molecules served as the analyte.
# [6] = target: T1, mesotrypsin; assay: Mesotrypsin inhibition, cleavage of Z-GPR-pNA; type: biochemical; design: made in house
# [7] = target: T2, hK6; assay: YSD binding of 50 nM hK6 in presence of active-site small molecule
# Protocol: Next, different concentrations of the polypeptides having SEQ ID Nos: 8, 13, and 14 were tested for their ability to bind 50 nM hK6 in the presence of a small molecule which target and home the serine residue in the active pocket of hK6.
# [8] = system: AGS gastric cancer cells; assay: Matrigel ThinCerts invasion assay; type: cell-based
# Protocol: The effects of […] (SEQ ID NO: 13) on the invasive behavior of AGS gastric cancer cells was examined. For invasion assays AGS cells were plated in the top chamber of a Matrigel coated […] (Greiner Bio-One, Germany), with an 8 μm pored membrane in 160 μl serum-free Ham's F-12 medium, in triplicate. 1 uM-10 uM of APPI (SEQ ID NO: 13) or a vehicle (50 mM Tris-HCl, 100 mM NaCl, Ph 7.3) in 40 μl were added to each insert. Next, the inserts were placed into the bottom chamber wells of a 24-well plate containing Ham's F-12 with 10% FBS as a chemo-attractant. After 48 hours of incubation, cells remaining on the inserts' top layers were removed by cotton swab scrubbing; Cells on the lower surface of the membrane were fixed in 100%/methanol and stained with Romanowski stain solutions. The cell numbers in 10 random fields (×20) were counted for each chamber and the average value was calculated.
# [9] = target: T1, mesotrypsin; assay: Hydrolysis of APPI variants by mesotrypsin, HPLC time course; type: biochemical; design: made in house
substance,measurement,setting,value
bovine pancreatic trypsin inhibitor [BPTI],proteolytic stability toward mesotrypsin,[1],the more stable of the two
"SEQ ID NO: 13: APPI variant, EVCSEQAETGPCRALFFRWYFDVTEGKCAPFVYGGCGGNRNNFDTEEYCMAVCGSAI",proliferation (XTT),[2],did not inhibit proliferation
same,proliferation (XTT),[3],did not inhibit proliferation
same,proliferation (XTT),[4],did not inhibit proliferation
same,pKd,[5]; 25° C.,9.45
same,improvement in binding to hK6,[5]; compared to APPI WT,22.5 folds
same,pKi,"[6]; Example 10, read-out: Ki (mesotrypsin activity)",8.27
same,binding to hK6 compared with SEQ ID NO: 8,"[7]; 50 nM hK6, yeast display",higher binding
same,binding to hK6 in presence of small molecule,[7]; high concentrations of small molecule targeting active-site Ser of hK6,diminished
same,invasive cells per field,"[8]; 10 μM APPI (b288 prints 10M), 48 hours",1.46±0.48 cells/field
same,invasion capacity reduced,"[8]; 10 μM APPI (b288 prints 10M), 48 hours, vs vehicle",77%
same,transmembrane invasion,[8]; compared with vehicle,significantly lower transmembrane invasion capacity; also recorded: inhibits cell invasion
"APPIT11C/M17G/I18F/F34C: APPI variant, EVCSEQAECGPCRAGFSRWYFDVTEGKCAPFCYGGCGGNRNNFDTEEYCMAVCGSAI",Kcat,[9]; Table 4,0.00521 s⁻¹
same,turnover time,[9]; Table 4,192.21 s
same,Turnover time (fold),[9]; proteolytic stability relative to APPI-WT,around 2 fold
same,pKi,"[6]; Table 4, read-out: Ki",6.83
